Experimental findings from patent US20260085338A1 are described below.

The target in test [1] is phi15 RNA polymerase (Pseudomonas phage phi15). Description: cell-based or functional assay.
Test [2] addresses P. putida RNA polymerase (Pseudomonas putida). Description: cell-based or functional assay.

For Pf-10 lysozyme (enzyme), in test [1], the decrease in msfGFP output (leakiness of the phi15 RNAP; P. putida, 4 mM Rha) stood at 84%.

The substance Phi15 GP16 RNA polymerase inhibitor had a cell growth (OD600) of P. putida after induction with 10 mM Rha in test [2] of 1.4 OD600.

For “phi15 lysozyme (AA1-9>Pf-10 (AA1-10)) (enzyme)”, the leaky expression (msfGFP; P. putida, 5 mM Rha) (nM 5(6)-FAM/OD600) in test [1] was 23.

In test [1], phi15 lysozyme (G3R) (enzyme) returned a leaky expression (msfGFP; P. putida, 5 mM Rha) (nM 5(6)-FAM/OD600) of 57.

In test [1], phi15 lysozyme (G3RQ) (enzyme) showed a fold induction (FITC-A of +RNAP,-lys against -RNAP,+lys), P. aeruginosa of 130 fold; a fold induction (FITC-A of +RNAP,-lys against -RNAP,+lys), P. putida of 9.64 fold; an induced (%) cells with FITC-A above 10^4, P. aeruginosa, -RNAP +lys of 5.94%; an induced (%) cells with FITC-A above 10^4, P. putida, -RNAP +lys of 66.7%. In test [1], this substance came in with a leaky expression (msfGFP; P. putida, 5 mM Rha) (nM 5(6)-FAM/OD600) of 11; a leaky expression from the phi15 RNAP (msfGFP; P. aeruginosa, 5 mM rhamnose) (5(6)-FAM/OD600) of 29; a leaky expression from the phi15 RNAP against the wild-type phi15 lysozyme (P. aeruginosa, 5 mM rhamnose) of 13 fold lower; a median FITC-A, flow cytometry, P. aeruginosa, -RNAP +lys (5 mM Rha) of 527 FITC-A. Also, the median FITC-A, flow cytometry, P. putida, -RNAP +lys (5 mM Rha) in test [1] turned out to be 12700 FITC-A.

In test [1], phi15 lysozyme (wild-type) (enzyme) registered a fold induction (FITC-A of +RNAP,-lys against -RNAP,+lys), P. aeruginosa of 7.36 fold; a fold induction (FITC-A of +RNAP,-lys against -RNAP,+lys), P. putida of 4.1 fold; an induced (%) cells with FITC-A above 10^4, P. aeruginosa, -RNAP +lys of 77.5%; an induced (%) cells with FITC-A above 10^4, P. putida, -RNAP +lys of 80%. For the same substance, in test [1], the leaky expression (msfGFP; P. putida, 5 mM Rha) (nM 5(6)-FAM/OD600) worked out at 122; the leaky fluorescence with lysozyme induced (P. putida, 4 mM Rha) (nM 5(6)-FAM/OD600) turned out to be 77; the median FITC-A, flow cytometry, P. aeruginosa, -RNAP +lys (5 mM Rha) amounted to 33400 FITC-A; the median FITC-A, flow cytometry, P. putida, -RNAP +lys (5 mM Rha) is 17800 FITC-A.
